Test results taken from patent US20170157165, “APTAMER FOR FGF2 AND USE THEREOF” (RIBOMIC INC., published 2017).

How the values were obtained:
FGF2 [1] = target: T1, FGF2 (Homo sapiens, UniProt P09038 P09038:135-288); experiment: inhibition; SPR inhibition of FGF2-FGFR1alpha(IIIc); each 0.1 uM; conditions: tags: Peprotech
Protocol: BIAcore2000 manufactured by BIAcore was used for the measurement. As directed in BIAcore Company's protocol, Protein A (21181, manufactured by PIERCE) was immobilized on a CM5 sensor chip. About 1,000 RU of human FGFR1α (IIIc), R2α (IIIc), R3 (IIIc), R4 (manufactured by R&D Systems) fused with the Fc portion of IgG (manufactured by R&D systems) was each immobilized thereon. As analyte, a mixture of FGF2 (0.1 μM), heparin (0.1 μM) (manufactured by Pfizer) and aptamer (0.15 μM) was flown. Before an inhibitory test, a mixture of FGF2 and heparin was confirmed to bind to 4 kinds of receptors. […] A sensorgram showing that the aptamer shown by aptamer ID 1 inhibits binding of FGF2 and FGFR1α(IIIc), 2α(IIIc), 3(IIIc), 4 is shown in FIG. 2.
In addition, the inhibitory rate against each of the 4 kinds of receptors was determined. The inhibitory rate was determined with the maximum binding amount of the FGF2 and heparin mixture as 0, and the binding amount with an injection buffer alone as 100. The binding amount here means the RU value of the peak top of sensorgram. The inhibitory rate was calculated. […] The inhibitory rate of other aptamers was not more than 50%.
To enhance FGF2-binding activity, stability, drug deliverability and the like, the nucleic acids shown by aptamer IDs 3(1)-3(40), aptamer IDs 4 and 4(1)-4(4), aptamer ID 5 and aptamer ID 6 were chemically synthesized based on the aptamer shown in SEQ ID NO: 3. Here, the aptamer shown by aptamer ID 4 is the aptamer shown by aptamer ID 3(19) wherein one G(M) at the 5′-terminal and one C(M) at the 3′-terminal have been deleted. The aptamer shown by aptamer ID 5 is the aptamer shown by aptamer ID 3(19) wherein one G(M) has been added at the 5′-terminal and one C(M) has been added at the 3′-terminal. The aptamer shown by aptamer ID 6 is the aptamer shown by aptamer ID 3(19) wherein A(M) alone has been added at the 5′-terminal. These nucleic acids were produced by chemical synthesis.

FGF2 [2] = target: T1, FGF2; experiment: cell_activity; HUVEC proliferation, FGF2 0.58 nM; conditions: tags: Peprotech
Protocol: Human umbilical vein endothelial cells (HUVEC) were seeded in a 96 well flat bottom plate at 5×10³ cells per well, and cultured overnight using a medium EGM-2 Bullet Kit for endothelial cells (CC-3162 manufactured by Lonza) containing 2% fetal bovine serum and growth factors. Thereafter, the medium was discarded, the cells were washed twice with PBS buffer, and a mixture of the aptamer shown by aptamer ID 3(21) (5, 2.5, 1, 0.5 nM) and FGF2 (final concentration 0.5 nM), dissolved in a medium exclusively for endothelial cells containing 2% fetal bovine serum, was added. After 72 hr, viable cell number was examined using Cell Counting Kit-8. For the measurement of absorbance, a microplate reader (450 nm) was used. One sample was measured at n=3. As a positive control, anti-FGF2 antibody Anti-FGF, basic (Ab-3) Mouse mAb (3H3) (manufactured by Calbiochem) were used. With the OD value per well obtained by the addition of FGF2 alone and culture of the cells for 3 days as inhibitory activity 0%, and that of the cell obtained by FGF2 free culture for 3 days as inhibitory activity 100%, the inhibitory activity of the aptamer was calculated from the OD value per well obtained by culturing with the addition of a mixture of FGF2 and the aptamer. As a result, it was shown that the aptamer shown by aptamer ID 3(21) has a high inhibitory activity against FGF2.
By a method similar to the above except that the 96 well flat bottom plate was changed to a collagen-coated one, the activity of various aptamers was evaluated. The concentration of FGF2 added was 0.58 nM. As a negative control RNA, Macugen (registered trade mark) sequence without addition of PEG, and with C6 modification of the 5′-terminal and idT modification of the 3′-terminal was used.

T1 sequence (P09038 135-288, one chain of several): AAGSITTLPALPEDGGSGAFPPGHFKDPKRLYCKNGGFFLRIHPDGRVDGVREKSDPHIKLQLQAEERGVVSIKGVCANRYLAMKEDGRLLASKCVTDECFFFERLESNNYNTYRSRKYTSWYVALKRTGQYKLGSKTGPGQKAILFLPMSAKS

Binder	activity (FGF2 [1]) [%]	IC50 (FGF2 [2]) [nM]
GGGAUACUAGGGCAUUAAUGUUACCAGUGUAGUCCC (ssRNA, 2'-F at U8,U16,U21,G27,U28,U30; 2'-OH at G12,G29; all others 2'-OMe) [aptamer ID 3(26)]	99	3
GGGAUACUAGGGCAUUAAUGUUACCAGUGUAGUCCC (ssRNA, all C and U 2'-F; 2'-OMe at A23; other purines 2'-OH) [aptamer ID 3(6)]	78	
GGGAUACUAGGGCAUUAAUGUUACCAGUGUAGUCCC (ssRNA, 2'-OMe at G1,G2,G3,A4,C7,A9,G10,G11,A14,A17,A18,G20,A23,A26; other C and U 2'-F; other purines 2'-OH) [aptamer ID 3(16)]	87	7.9
GGGAUACUAGGGCAUUAAUGUUACCAGUGUAGUCCC (ssRNA, 2'-OMe at G1,G2,G3,A4,U5,A9,G10,G11,A14,A17,A18,G20,A23,A26; other C and U 2'-F; other purines 2'-OH) [aptamer ID 3(17)]	88	
GGGAUACUAGGGCAUUAAUGUUACCAGUGUAGUCCC (ssRNA, 2'-OMe at G1,G2,G3,A4,A9,G10,G11,A14,A17,A18,G20,A23,A26,U33,C34,C35,C36; other C and U 2'-F; other purines 2'-OH; 3' idT) [aptamer ID 3(12)]	89	21
GGGAUACUAGGGCAUUAAUGUUACCAGUGUAGUCCC (ssRNA, all C and U 2'-F; 2'-OMe at A26; other purines 2'-OH) [aptamer ID 3(7)]	89	
GGGAUACUAGGGCAUUAAUGUUACCAGUGUAGUCCC (ssRNA, 2'-F at U8,U16,U21,U28,U30; 2'-OH at G12,G27,G29; all others 2'-OMe; 5' PEG 10K 4-branched (PTE-100CS)-C6; 3' idT) [aptamer ID 3(39)]	97	
GGGAUACUAGGGCAUUAAUGUUACCAGUGUAGUCCC (ssRNA, 2'-F at U8,U16,U21,U28,U30; 2'-OH at G12,G27,G29; all others 2'-OMe; 5' PEG 80K (GL4-800TS)-C6; 3' idT) [aptamer ID 3(36)]	98	
GGGAUACUAGGGCAUUAAUGUUACCAGUGUAGUCCC (ssRNA, 2'-F at U8,G12,U16,U21,G27,U28,U30; 2'-OH at G29; all others 2'-OMe; 3' idT) [aptamer ID 3(35)]	84	
GGGAUACUAGGGCAUUAAUGUUACCAGUGUAGUCCC (ssRNA, 2'-F at U8,U16,U21,U28,U30; 2'-OH at G12,G27,G29; all others 2'-OMe; 5' idT) [aptamer ID 3(20)]	96	
GGGAUACUAGGGCAUUAAUGUUACCAGUGUAGUCCC (ssRNA, all C and U 2'-F; 2'-OMe at A31; other purines 2'-OH) [aptamer ID 3(11)]	88	
GGGAUACUAGGGCAUUAAUGUUACCAGUGUAGUCCC (ssRNA, 2'-F at U8,U16,U21,U28,U30; 2'-OH at G12,G27,G29; all others 2'-OMe; PS between G11 and G12) [aptamer ID 3(28)]	91	4
GGGAUACUAGGGCAUUAAUGUUACCAGUGUAGUCCC (ssRNA, 2'-F at U8,U16,U21,U28,U30; G27 DNA (2'-H); 2'-OH at G12,G29; all others 2'-OMe) [aptamer ID 3(24)]	90	7.3
GGGAUACUAGGGCAUUAAUGUUACCAGUGUAGUCCC (ssRNA, 2'-F at U8,U16,U21,U28,U30; 2'-OH at G12,G27,G29; all others 2'-OMe) [aptamer ID 3(18)]	89	2.6
GGGAUACUAGGGCAUUAAUGUUACCAGUGUAGUCCC (ssRNA, 2'-F at U8,U16,U21,U28,U30; G12 DNA (2'-H); 2'-OH at G27,G29; all others 2'-OMe) [aptamer ID 3(23)]	91	5.3
GGGAUACUAGGGCAUUAAUGUUACCAGUGUAGUCCC (ssRNA, 2'-F at U8,U16,U21,U28,U30; 2'-OH at G12,G27,G29; all others 2'-OMe; 5' PEG 10K (ME-100TS)-C6; 3' idT) [aptamer ID 3(38)]	97	
GGAUACUAGGGCAUUAAUGUUACCAGUGUAGUCC (ssRNA, 2'-F at U7,U15,U20,U27,U29; 2'-OH at G11,G26,G28; all others 2'-OMe; 3' idT) [aptamer ID 4]	95	5
GGAUACUAGGGCAUUAAUGUUACCAGUGUAGUCC (ssRNA, 2'-F at U7,G11,U15,U20,G26,U27,U29; 2'-OH at G28; all others 2'-OMe; PS between G28 and U29; 3' idT) [aptamer ID 4(4)]	96	4.5
GGAUACUAGGGCAUUAAUGUUACCAGUGUAGUCC (ssRNA, 2'-F at U7,G11,U15,U20,G26,U27,U29; 2'-OH at G28; all others 2'-OMe; 3' idT) [aptamer ID 4(2)]	94	5.1
GGAUACUAGGGCAUUAAUGUUACCAGUGUAGUCC (ssRNA, 2'-F at U7,G11,U15,U20,U27,U29; 2'-OH at G26,G28; all others 2'-OMe; 3' idT) [aptamer ID 4(1)]	93	3.8
GGAUACUAGGGCAUUAAUGUUACCAGUGUAGUCC (ssRNA, 2'-F at U7,G11,U15,U20,U27,U29; 2'-OH at G26,G28; all others 2'-OMe; PS between U27 and G28; 3' idT) [aptamer ID 4(3)]	96	4.6
